This is an account of results in publication PMC8983781.

The target of assay [1] is 3HA-tagged SP-C L188Q (human) (UniProt P11686).
The target of assay [2] is SP-C L188Q with the site 2 mutations (human) (UniProt P11686). Kind of assay: co-IP; 293T cells co-transfected with an SP-C construct and one co-chaperone (BiP co-transfected in the GRP170 experiments; 20 mM NEM in wash and lysis for ERdj5); NP-40 lysates 24 h after transfection, immunoprecipitated with anti-SP-C overnight at 4 °C, Protein A agarose, washed with buffer containing 0.4 M NaCl; co-chaperones detected by western blot; in Fig. 4 signals normalised to SP-C and expressed as percent of parental L188Q. (Immunoblotting shows a protein as a band on a membrane.)

Substrate in assay [3]: SP-C L188Q with the site 2 mutations (human) (UniProt P11686)
Briefly: co-IP; 293T cells co-transfected with an SP-C construct and one co-chaperone (BiP co-transfected in the GRP170 experiments; 20 mM NEM in wash and lysis for ERdj5); NP-40 lysates 24 h after transfection, immunoprecipitated with anti-SP-C overnight at 4 °C, Protein A agarose, washed with buffer containing 0.4 M NaCl; co-chaperones detected by western blot; in Fig. 4 signals normalised to SP-C and expressed as percent ….

In turn, “wild-type surfactant protein C (SP-C) proprotein, untagged (from UniProt P11686 1-58) (natural protein)” had a percent of wild-type SP-C that is palmitoylated (a measure of transport to the Golgi) when co-expressed with the L188Q mutant; 17.6% when expressed alone in assay [1] of 10%.

With “ERdj4-3HA (mouse) (from UniProt Q9QYI6 24-222) (natural protein)”, the percent reduction of binding against parental L188Q in assay [2] stood at 70%.

B1: GRP170 (human) (natural protein)
chain: LAVMSVDLGSESMKVAIVKPGVPMEIVLNKESRRKTPVIVTLKENERFFGDSAASMAIKNPKATLRYFQHLLGKQADNPHVALYQARFPEHELTFDPQRQTVHFQISSQLQFSPEEVLGMVLNYSRSLAEDFAEQPIKDAVITVPVFFNQAERRAVLQAARMAGLKVLQLINDNTATALSYGVFRRKDINTTAQNIMFYDMGSGSTVCTIVTYQMVKTKEAGMQPQLQIRGVGFDRTLGGLEMELRLRERLAGLFNEQRKGQRAKDVRENPRAMAKLLREANRLKTVLSANADHMAQIEGLMDDVDFKAKVTRVEFEELCADLFERVPGPVQQALQSAEMSLDEIEQVILVGGATRVPRVQEVLLKAVGKEELGKNINADEAAAMGAVYQAAALSKAFKVKPFVVRDAVVYPILVEFTREVEEEPGIHSLKHNKRVLFSRMGPYPQRKVITFNRYSHDFNFHINYGDLGFLGPEDLRVFGSQNLTTVKLKGVGDSFKKYPDYESKGIKAHFNLDESGVLSLDRVESVFETLVEDSAEEESTLTKLGNTISSLFGGGTTPDAKENGTDTVQEEEESPAEGSKDEPGEQVELKEEAEAPVEDGSQPPPPEPKGDATPEGEKATEKENGDKSEAQKPSEKAEAGPEGVAPAPEGEKKQKPARKRRMVEEIGVELVVLDLPDLPEDKLAQSVQKLQDLTLRDLEKQEREKAANSLEAFIFETQDKLYQPEYQEVSTEEQREEISGKLSAASTWLEDEGVGATTVMLKEKLAELRKLCQGLFFRVEERKKWPERLSALDNLLNHSSMFLKGARLIPEMDQIFTEVEMTTLEKVINETWAWKNATLAEQAKLPATEKPVLLSKDIEAKMMALDREVQYLLNKAKFTKPRPRPKDKNGTRAEPPLNASASDQGEKVIPPAGQTEDAEPISEPEKVETGSEPGDTEPLELGGPGAEPEQKEQSTGQKRPLKNDEL
B1: the percent of the binding to parental L188Q in assay [3] came to 30%.

B2: ERdj5 (mouse) (natural protein)
chain: DQNFYSLLGVSKTASSREIRQAFKKLALKLHPDKNPNNPNAHGDFLKINRAYEVLKDEDLRKKYDKYGEKGLEDNQGGQYESWSYYRYDFGIYDDDPEIITLERREFDAAVNSGELWFVNFYSPGCSHCHDLAPTWREFAKEVDGLLRIGAVNCGDDRMLCRMKGVNSYPSLFIFRSGMAAVKYNGDRSKESLVAFAMQHVRSTVTELSTGNFVNAIETAFAAGVGWLITFCSKGEDCLTSQTRLRLSGMLDGLVNVGWVDCDAQDSLCKSLDTTASTTAYFPPGATLNDREKSSVLFLNSLDAKEIYMEIIHNLPDFELLSANQLEDRLAHHRWLVFFHFGKNENANDPELKKLKTLLKNEHIQVGRFDCSSAPGICSDLYVFQPCLAVFKGQGTKEYEIHHGKKILYDILAFAKESVNSHVTTLGPQNFPASDKEPWLVDFFAPWCPPCRALLPELRKASTLLYGQLKVGTLDCTIHEGLCNMYNIQAYPTTVVFNQSSIHEYEGHHSAEQILEFIEDLRNPSVVSLTPSTFNELVKQRKHDEVWMVDFYSPWCHPCQVLMPEWKRMARTLTGLINVGSVDCQQYHSFCTQENVQRYPEIRFYPQKSSKAYQYHSYNGWNRDAYSLRSWGLGFLPQASIDLTPQTFNEKVLQGKTHWVVDFYAPWCGPCQNFAPEFELLARMIKGKVRAGKVDCQAYPQTCQKAGIKAYPSVKLYQYERAKKSIWEEQINSRDAKTIAALIYGKLETLQSQVKRNKDEL
As to B2, the percent reduction of binding against parental L188Q in assay [3] was determined as 30%.
